Legend:
Details in all cases: both partners purified
[1] = biological target: T1, Smc1 (S. cerevisiae (budding yeast), UniProt P32908 1-1225); experiment: cross-linking; CLMS with sulfo-SDA; cohesin, Tof1-Csm3 and Chl1 with or without Mrc1 at 300-350 nM, 30 °C 5 min, cross-linker 2 h at 4 °C, UV 365 nm; LC-MS/MS, 1% FDR at residue-pair level; two samples merged
T1 construct: Smc1, budding yeast; the Smc1 chain of m1; Stood in the cross-linking sample as a chain of cohesin; source: purified as part of cohesin, as previously described (Minamino et al. 2018)
T1 sequence (looked up): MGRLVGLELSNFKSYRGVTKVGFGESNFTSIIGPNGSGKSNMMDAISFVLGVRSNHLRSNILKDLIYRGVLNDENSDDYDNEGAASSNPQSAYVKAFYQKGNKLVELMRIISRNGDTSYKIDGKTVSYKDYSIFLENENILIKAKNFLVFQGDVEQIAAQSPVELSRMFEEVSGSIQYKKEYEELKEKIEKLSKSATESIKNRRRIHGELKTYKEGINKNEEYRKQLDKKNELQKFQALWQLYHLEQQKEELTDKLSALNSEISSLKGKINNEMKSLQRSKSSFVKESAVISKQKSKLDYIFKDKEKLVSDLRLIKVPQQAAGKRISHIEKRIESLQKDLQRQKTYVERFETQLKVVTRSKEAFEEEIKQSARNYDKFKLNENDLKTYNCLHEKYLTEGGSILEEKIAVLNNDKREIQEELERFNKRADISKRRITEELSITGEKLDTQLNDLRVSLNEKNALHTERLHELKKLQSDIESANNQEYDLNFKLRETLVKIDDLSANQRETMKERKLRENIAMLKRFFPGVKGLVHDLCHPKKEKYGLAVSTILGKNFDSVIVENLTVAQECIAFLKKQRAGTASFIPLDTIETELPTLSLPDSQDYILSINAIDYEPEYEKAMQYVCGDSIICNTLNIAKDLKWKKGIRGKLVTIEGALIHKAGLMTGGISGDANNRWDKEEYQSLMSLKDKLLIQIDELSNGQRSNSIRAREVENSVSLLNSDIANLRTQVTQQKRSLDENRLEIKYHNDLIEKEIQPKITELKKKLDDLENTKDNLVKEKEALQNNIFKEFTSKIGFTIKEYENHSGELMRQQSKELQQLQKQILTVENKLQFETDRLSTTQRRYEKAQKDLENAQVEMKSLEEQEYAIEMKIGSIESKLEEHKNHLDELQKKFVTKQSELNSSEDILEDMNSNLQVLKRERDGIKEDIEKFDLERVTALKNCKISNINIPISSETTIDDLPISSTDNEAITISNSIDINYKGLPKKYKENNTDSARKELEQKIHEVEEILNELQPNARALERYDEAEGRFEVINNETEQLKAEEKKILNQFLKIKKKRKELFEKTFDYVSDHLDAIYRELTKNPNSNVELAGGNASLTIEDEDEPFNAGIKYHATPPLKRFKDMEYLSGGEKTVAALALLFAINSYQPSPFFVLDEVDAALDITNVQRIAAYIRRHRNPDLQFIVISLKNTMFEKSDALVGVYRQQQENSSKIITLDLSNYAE

[2] = biological target: T2, Tof1-Csm3 complex (S. cerevisiae (budding yeast), UniProt P53840 1-1238; Q04659 1-317); experiment: pull-down; Flag-tagged Mrc1 (200-600 nM) held on anti-Flag M2 magnetic beads; with or without a first incubation with Tof1-Csm3, then cohesin (tetramer, trimer or Smc1-Smc3 dimer) or GINS; interaction buffer with 100 mM potassium glutamate; elution with 3x Flag peptide or SDS sample buffer; Coomassie staining; benzonase or NaCl added where indicated
T2 construct: Tof1, budding yeast; Csm3, budding yeast; Held on calmodulin dynabeads when used as bait; source: purified as previously described (Yeeles et al. 2017)

[3] = biological target: T3, cohesin trimer (Smc1-Smc3-Scc1) (S. cerevisiae (budding yeast), UniProt P32908 1-1225; P47037 1-1230; Q12158 1-566); experiment: as above
T3 construct: Smc1, cohesin subunit, budding yeast; Smc3, cohesin subunit, budding yeast; Scc1, cohesin subunit, budding yeast; source: purified following the same protocol as cohesin tetramers (IgG agarose, 3C protease cleavage); copies: + +

[4] = biological target: T4, Smc1-Smc3 dimer (S. cerevisiae (budding yeast), UniProt P32908 1-1225; P47037 1-1230); experiment: as above
T4 construct: Smc1, cohesin subunit, budding yeast; Smc3, cohesin subunit, budding yeast; also called SMC dimer; SMC dimers (Smc1-Smc3); source: purified following the same protocol as cohesin tetramers (IgG agarose, 3C protease cleavage); not shown: Protein A, C-terminal, cleaved
T4 sequence (P47037 whole entry, chain 2 of 2, one chain of several): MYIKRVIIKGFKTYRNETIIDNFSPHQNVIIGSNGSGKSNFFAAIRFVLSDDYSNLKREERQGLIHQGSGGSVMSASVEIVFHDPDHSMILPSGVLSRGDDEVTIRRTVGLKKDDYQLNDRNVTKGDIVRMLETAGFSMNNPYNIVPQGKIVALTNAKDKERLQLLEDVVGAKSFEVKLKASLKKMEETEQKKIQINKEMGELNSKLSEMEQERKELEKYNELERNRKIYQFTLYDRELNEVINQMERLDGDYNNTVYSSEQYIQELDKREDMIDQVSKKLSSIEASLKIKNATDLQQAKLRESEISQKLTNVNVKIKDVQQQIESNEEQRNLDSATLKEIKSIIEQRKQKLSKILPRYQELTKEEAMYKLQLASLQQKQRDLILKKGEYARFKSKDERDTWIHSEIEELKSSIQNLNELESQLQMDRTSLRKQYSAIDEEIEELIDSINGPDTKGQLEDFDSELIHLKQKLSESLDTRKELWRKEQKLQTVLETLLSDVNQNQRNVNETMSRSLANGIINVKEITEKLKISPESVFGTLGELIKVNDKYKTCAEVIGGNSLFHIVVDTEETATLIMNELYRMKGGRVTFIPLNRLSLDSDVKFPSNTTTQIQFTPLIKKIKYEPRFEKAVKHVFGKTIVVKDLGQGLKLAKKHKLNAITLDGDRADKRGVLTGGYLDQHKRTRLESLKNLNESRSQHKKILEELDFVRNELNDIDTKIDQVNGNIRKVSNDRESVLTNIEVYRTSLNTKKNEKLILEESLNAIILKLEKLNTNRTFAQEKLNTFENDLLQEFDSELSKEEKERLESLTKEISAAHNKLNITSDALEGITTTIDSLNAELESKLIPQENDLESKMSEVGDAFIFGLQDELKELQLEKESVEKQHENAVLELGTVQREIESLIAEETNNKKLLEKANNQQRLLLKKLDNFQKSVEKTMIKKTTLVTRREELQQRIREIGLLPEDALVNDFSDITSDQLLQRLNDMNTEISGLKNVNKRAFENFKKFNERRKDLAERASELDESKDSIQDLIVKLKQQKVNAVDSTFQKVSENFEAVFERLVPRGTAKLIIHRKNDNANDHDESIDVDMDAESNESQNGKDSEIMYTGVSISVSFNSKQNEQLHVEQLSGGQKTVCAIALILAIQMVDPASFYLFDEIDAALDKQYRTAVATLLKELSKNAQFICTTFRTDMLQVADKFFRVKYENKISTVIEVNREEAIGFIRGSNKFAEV

T3 sequence (P47037 whole entry, chain 2 of 3, one chain of several): as the sequence (P47037 whole entry, chain 2 of 2, one chain of several) above
T3 sequence (Q12158 whole entry, chain 3 of 3, one chain of several): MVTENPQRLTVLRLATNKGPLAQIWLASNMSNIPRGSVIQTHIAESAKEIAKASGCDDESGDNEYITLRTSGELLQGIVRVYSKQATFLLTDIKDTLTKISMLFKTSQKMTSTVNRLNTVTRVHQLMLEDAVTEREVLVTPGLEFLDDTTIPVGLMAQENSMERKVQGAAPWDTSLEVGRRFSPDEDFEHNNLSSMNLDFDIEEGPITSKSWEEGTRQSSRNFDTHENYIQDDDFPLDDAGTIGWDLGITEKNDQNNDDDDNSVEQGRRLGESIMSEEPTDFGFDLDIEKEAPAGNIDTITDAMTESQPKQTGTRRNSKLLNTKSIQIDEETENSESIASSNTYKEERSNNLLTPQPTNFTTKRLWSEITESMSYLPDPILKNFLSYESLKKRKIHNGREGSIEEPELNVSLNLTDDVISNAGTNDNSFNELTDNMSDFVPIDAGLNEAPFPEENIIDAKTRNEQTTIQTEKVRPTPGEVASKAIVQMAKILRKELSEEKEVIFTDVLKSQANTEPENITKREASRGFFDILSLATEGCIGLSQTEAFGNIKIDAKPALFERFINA
T2 sequence (P53840 whole entry, chain 1 of 2): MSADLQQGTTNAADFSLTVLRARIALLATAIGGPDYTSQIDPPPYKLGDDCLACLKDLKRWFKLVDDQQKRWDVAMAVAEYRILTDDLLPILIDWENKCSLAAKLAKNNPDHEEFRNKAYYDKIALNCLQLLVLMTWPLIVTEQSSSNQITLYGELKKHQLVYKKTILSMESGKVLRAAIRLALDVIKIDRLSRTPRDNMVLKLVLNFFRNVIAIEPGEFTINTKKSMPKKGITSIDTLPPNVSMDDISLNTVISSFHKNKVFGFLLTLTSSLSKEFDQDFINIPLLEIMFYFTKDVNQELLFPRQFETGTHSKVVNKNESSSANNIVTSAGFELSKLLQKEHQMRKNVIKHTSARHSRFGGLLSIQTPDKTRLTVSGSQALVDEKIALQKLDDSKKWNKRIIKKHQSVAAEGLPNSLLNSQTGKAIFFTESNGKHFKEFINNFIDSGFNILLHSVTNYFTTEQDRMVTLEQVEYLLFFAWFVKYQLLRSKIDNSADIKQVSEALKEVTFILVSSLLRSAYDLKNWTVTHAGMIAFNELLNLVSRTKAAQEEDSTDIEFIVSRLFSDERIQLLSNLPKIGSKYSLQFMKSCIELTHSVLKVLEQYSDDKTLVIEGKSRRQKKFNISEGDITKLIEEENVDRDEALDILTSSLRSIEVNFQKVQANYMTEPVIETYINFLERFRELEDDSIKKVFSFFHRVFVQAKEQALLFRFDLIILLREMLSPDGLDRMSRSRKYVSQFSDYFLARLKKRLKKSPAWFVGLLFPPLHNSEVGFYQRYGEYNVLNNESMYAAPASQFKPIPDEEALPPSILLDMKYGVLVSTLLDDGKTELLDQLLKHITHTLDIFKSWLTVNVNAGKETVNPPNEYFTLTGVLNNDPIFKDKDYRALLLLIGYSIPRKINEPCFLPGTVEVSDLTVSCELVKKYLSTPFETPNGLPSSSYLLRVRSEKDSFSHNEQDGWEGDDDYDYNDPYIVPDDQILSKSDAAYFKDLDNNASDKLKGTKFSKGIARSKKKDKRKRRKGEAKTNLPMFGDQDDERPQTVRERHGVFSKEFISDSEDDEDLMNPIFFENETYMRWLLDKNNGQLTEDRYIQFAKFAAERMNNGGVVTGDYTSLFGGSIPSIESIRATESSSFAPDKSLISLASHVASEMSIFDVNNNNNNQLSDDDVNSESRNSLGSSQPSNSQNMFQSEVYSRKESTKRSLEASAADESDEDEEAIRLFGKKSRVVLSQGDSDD
T2 sequence (Q04659 whole entry, chain 2 of 2): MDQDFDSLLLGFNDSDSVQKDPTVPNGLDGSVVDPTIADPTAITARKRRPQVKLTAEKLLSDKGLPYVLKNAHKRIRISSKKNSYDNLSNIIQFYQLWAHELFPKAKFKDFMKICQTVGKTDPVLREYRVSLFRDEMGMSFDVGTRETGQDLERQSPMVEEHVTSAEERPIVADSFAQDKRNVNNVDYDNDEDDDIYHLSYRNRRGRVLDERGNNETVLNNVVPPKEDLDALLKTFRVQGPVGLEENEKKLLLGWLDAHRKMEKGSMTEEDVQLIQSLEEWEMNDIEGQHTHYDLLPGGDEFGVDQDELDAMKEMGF

- binding result [1]: binds
- binding result [2]: binds
- binding result [3]: binds
- binding result [4]: binds
B1: Mrc1 (natural protein, S. cerevisiae (budding yeast), UniProt P25588 1-1096, looked up)
chain: MDDALHALSSLTAKKRTTTYKKVAVPILDENDNTNGNGPNDIDNPPELTGNGFLFANATLNRVKNRLEGKKAPEQNHNNGKDRSENSLPTQLISNLYDGGEELEKSEVKDNSYSEKNVSSSFTQTQRIPVSIQQDKVFNVPIHSVNDGKPTQLIKEDGLVNETSQALKTPLTTGRPGATQRIDSSGATSQTQPIKSIEPQSQIITTSSNHSNALSPKIPIIPTELIGTSPLFQSIQNRGPDTQMDVPPQTAHDEDKTQAIGIPQATHQEQKTQIDTVAQTLQDEVPHTLKIREIQSELASEDSKREKARNVEYKKPQKPIPTKKFFSKESFLADFDDSSSNEDDDIKLENAHPKPVQNDDELHENKSVELNLTDETRINEKRVPLLSSYANNLKREIDSSKCITLDLDSDSDEYGDDDMDSIKLSKDESVLPISQLSKATILNLKARLSKQNQKLSQRPNKSKDPKVDHNVLLNTLRKASRKQILDHQKEVIETKGLKLEDMAKEKEIVENLLEQEILRNKRIRQKEKRREKLEENDFQLNAHDSGSDSGSESSGFALSGNEIADYESSGSENDNRRESDSEKEDDEIILKQKKSHHVKHIINESDSDTEVEAKPKEKADESLPKRIAINLGHYGDNIGEDTDKFQETNVLDTQNIEEVMAERNTIENEVKDDVYVNEEADEAIRRQLIDKEKLQLKQKEKEHEAKIKELKKRGVTNFFEMEAEESEDEWHGIGGADGEGSDDYDSDLEKMIDDYSKNNFNPHEIREMLAAENKEMDIKMINKILYDIKNGGFRNKRAKNSLELELSDDDEDDVLQQYRLKRRELMRKRRLEIGDDAKLVKNPKSSAFFESMVEDIIEYKNPFGAEEEYNLDITSTATDLDTQDNSINVGDNTGNNEQKPVDQKNKKVIISEDFVQKSLSFLKSNNYEDFETDKELSRIQHGNDEAIEDLYTLKQNSSIKSFTNSQTDSTTSKTVNTIIDLEKRPEDEDEVENGDTSLVGVFKHPSIIKSFASRTDINDKFKEGNKTVKILKSYKTVGSSKASITYMGKTRKLIAPKRKTEGSHRYHHDHHNKKMKMKTKTKSNKLFESGQDSFDN
notes: Mrc1, budding yeast; also called Flag-tagged Mrc1; source: purified as previously described (Yeeles et al. 2017)

From article PMC10247859, “Replisome-cohesin interactions provided by the Tof1-Csm3 and Mrc1 cohesion establishment factors” (Chromosoma, 2023)
